Assay results reported in article PMC8643683, “Loss of full-length hnRNP R isoform impairs DNA damage response in motoneurons by inhibiting Yb1 recruitment to chromatin” (Nucleic Acids Research, 2021).

Target: T1, Y-box binding protein 1 (Yb1), endogenous mouse (mouse (endogenous in primary mouse …, UniProt P62960 1-322))
T1 construct: also called Msy1; source: endogenous, primary mouse motoneuron lysate; endogenous, NSC-34 lysate
Test: co-IP; Yb1 (sc-101198) or γ-H2AX (clone JBW301) immunoprecipitated on protein A or G Dynabeads from whole lysates of NSC-34 cells, 0 Gy or 9 Gy; IP lysis buffer (50 mM Tris-HCl pH 7.4, 140 mM NaCl, 1% Triton X-100) with 1 U Benzonase, overnight at 4°C; western blot
Details: partners not purified

T1 sequence (P62960 whole entry): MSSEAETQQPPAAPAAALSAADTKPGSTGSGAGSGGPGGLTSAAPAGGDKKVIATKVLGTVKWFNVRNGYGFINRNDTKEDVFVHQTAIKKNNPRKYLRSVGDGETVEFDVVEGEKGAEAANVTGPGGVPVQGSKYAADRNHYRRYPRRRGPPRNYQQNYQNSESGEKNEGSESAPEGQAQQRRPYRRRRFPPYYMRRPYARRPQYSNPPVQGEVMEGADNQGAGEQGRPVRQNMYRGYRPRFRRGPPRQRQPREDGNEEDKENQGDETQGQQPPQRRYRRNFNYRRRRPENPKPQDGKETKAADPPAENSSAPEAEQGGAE

fold preference of co-precipitation with Yb1 over hnRNP R-ΔN: 1.7 fold
B1: hnRNP R-FL (full-length hnRNP R isoform), endogenous (natural protein, mouse (endogenous in NSC-34), UniProt Q8VHM5 1-632, looked up)
chain: MANQVNGNAVQLKEEEEPMDTSSVTHTEHYKTLIEAGLPQKVAERLDEIFQTGLVAYVDLDERAIDALREFNEEGALSVLQQFKESDLSHVQNKSAFLCGVMKTYRQREKQGSKVQESTKGPDEAKIKALLERTGYTLDVTTGQRKYGGPPPDSVYSGVQPGIGTEVFVGKIPRDLYEDELVPLFEKAGPIWDLRLMMDPLSGQNRGYAFITFCGKEAAQEAVKLCDSYEIRPGKHLGVCISVANNRLFVGSIPKNKTKENILEEFSKVTEGLVDVILYHQPDDKKKNRGFCFLEYEDHKSAAQARRRLMSGKVKVWGNVVTVEWADPVEEPDPEVMAKVKVLFVRNLATTVTEEILEKSFSEFGKLERVKKLKDYAFVHFEDRGAAVKAMDEMNGKEIEGEEIEIVLAKPPDKKRKERQAARQASRSTAYEDYYYHPPPRMPPPMRGRGRGGRGGYGYPPDYYGYEDYYDDYYGYDYHDYRGGYEDPYYGYDDGYAVRGRGGGRGGRGAPPPPRGRGAPPPRGRAGYSQRGAPLGPPRGSRGGRGGPAQQQRGRGSRGARGNRGGNVGGKRKADGYNQPDSKRRQTNNQQNWGSQPIAQQPLQQGGDYSGNYGYNNDNQEFYQDTYGQQWK
notes: hnRNP R, mouse, full-length 632-amino acid protein encoded by transcript variant 1, translated from the AUG in exon 2; source: endogenous, NSC-34 lysate
